The source of these data is paper PMC4349392.

The experiment has as its target YFP-tagged CaV1.3 IQ domain, prototypic (IQDY) (rat). The experiment is described as follows: FRET or BRET. (Bioluminescence resonance energy transfer reports proximity on the nanometre scale.)

Substance “CFP-tagged calmodulin, wild type (CFP-CaMWT) (from UniProt P0DP29 1-149) (natural protein)” registered a K (a,EFF) (reciprocal D (free) units) of 0.000588, a Ka of 1.8e+07 M⁻¹ and a Kd of 55 nM.

One may read the Kd as the free concentration of one partner at which half of the binding sites on the other are occupied at equilibrium, for simple one-to-one binding. Read a low Kd as a tighter complex.
